Source: patent publication US20240075137A1 (COMPUGEN, published 2024)
Where two headings read alike, the source gives them in different places.

Legend:
[1] = biological target: T1, human PVRIG on cells (human, UniProt Q6DKI7 1-326); assay: flow cytometry, Jurkat cells
T1 construct: whole, on cells; over-expressed on HEK cells or endogenous on Jurkat and CD8 T cells; also called hPVRIG; HEK hPVRIG cells
T1 sequence (looked up): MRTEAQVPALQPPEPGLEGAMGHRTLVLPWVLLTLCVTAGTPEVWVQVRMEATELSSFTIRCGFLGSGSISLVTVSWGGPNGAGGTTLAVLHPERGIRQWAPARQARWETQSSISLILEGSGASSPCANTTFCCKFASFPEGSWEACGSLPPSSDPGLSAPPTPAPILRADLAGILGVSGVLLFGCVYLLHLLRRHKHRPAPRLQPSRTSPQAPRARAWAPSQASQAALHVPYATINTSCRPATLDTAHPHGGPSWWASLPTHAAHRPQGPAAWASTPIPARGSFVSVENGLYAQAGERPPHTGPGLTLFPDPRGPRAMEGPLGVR

[2] = biological target: T1, human PVRIG on cells; assay: flow cytometry, HEK hPVRIG cells
[3] = biological target: T1, human PVRIG on cells; assay: FACS, HEK hPVRIG cells (HEK OE)
[4] = biological target: T1, human PVRIG on cells; assay: FACS on Jurkat cells; column head 'Kd', unit nM from legend paragraph 75
[5] = biological target: T1, human PVRIG on cells; assay: FACS on HEK hPVRIG cells; column head 'Kd', unit nM from legend paragraph 75
[6] = biological target: T2, PVRIG (FACS-based competition assay of FIGS. 7 and 15) (Homo sapiens, UniProt Q6DKI7); assay: FACS-based competition assay of PVRIG blocking; format and competitor not given
T2 construct: made because the format of the assay is only described in U.S. Ser. No. 15/048,967; also called human PVRIG
T2 sequence (receptor, looked up): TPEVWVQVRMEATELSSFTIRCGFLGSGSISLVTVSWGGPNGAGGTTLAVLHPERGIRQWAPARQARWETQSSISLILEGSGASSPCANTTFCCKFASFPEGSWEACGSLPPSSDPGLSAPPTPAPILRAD

[7] = biological target: T2, PVRIG (FACS-based competition assay of …); assay: as above; remark: listed apart in the source
[8] = biological target: T1, human PVRIG on cells; assay: flow cytometry titration, Jurkat cells
[9] = biological target: T1, human PVRIG on cells; assay: flow cytometry titration, HEK hPVRIG cells
[10] = biological target: T3, cynomolgus PVRIG on cells (cynomolgus, UniProt A0A2K5WVV8 41-322); assay: flow cytometry titration, expi cPVRIG cells
T3 construct: whole, on cells; also called cPVRIG; expi cPVRIG cells
T3 sequence: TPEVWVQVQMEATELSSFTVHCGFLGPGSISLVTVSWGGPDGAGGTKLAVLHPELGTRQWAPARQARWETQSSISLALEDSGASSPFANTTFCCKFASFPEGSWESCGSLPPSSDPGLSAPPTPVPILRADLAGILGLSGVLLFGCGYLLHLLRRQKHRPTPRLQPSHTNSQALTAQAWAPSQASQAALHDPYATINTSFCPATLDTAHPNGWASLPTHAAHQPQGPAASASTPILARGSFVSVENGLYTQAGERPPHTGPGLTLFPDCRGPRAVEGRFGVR

[11] = biological target: T1, human PVRIG on cells; assay: FACS competition: PVRL2 mFc binding to HEK hPVRIG cells
[12] = biological target: T1, human PVRIG on cells; assay: FACS on Jurkat cells pre-incubated with Isotype (unconjugated)
[13] = biological target: T1, human PVRIG on cells; assay: FACS on Jurkat cells pre-incubated with CHA.7.518.1 (unconjugated)
[14] = biological target: T1, human PVRIG on cells; assay: FACS on Jurkat cells pre-incubated with CHA.7.538.1.2 (unconjugated)
[15] = biological target: T4, PVRIG Fc (UniProt Q6DKI7 41-171, limits assumed, biotinylated (Example 5)); assay: FACS competition: biotinylated PVRIG Fc (33 nM) binding to HEK cells with endogenous PVRL2
T4 construct: also called biotinylated PVRIG Fc protein; PVRIG-Fc-fusion protein
T4 sequence (looked up): T2 sequence (receptor, looked up)

[16] = biological target: T5, Cyno TIGIT-His; assay: SPR (ProteOn), Cyno TIGIT-His
T5 construct: also called cyno TIGIT monomer (prepared in-house); C-terminal HIS-tagged cyno TIGIT ECD recombinant protein

[17] = biological target: T6, human TIGIT ECD with C-terminal polyhistidine tag (human, UniProt Q495A1 22-141); assay: SPR (ProteOn), Human TIGIT-His
T6 construct: in-house or Sino Biological; also called hTIGIT-HIS; human TIGIT-HIS
T6 sequence: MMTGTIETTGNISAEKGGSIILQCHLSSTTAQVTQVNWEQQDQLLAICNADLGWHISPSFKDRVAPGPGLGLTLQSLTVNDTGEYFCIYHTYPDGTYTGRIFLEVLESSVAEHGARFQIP

[18] = biological target: T6, human TIGIT ECD with C-terminal …; assay: SPR (ProteOn), mAb captured, human TIGIT injected; BM29 as hIgG4
[19] = biological target: T7, Mouse TIGIT-His (mouse, UniProt P86176); assay: SPR (ProteOn), mAb captured, mouse TIGIT monomer injected; BM29 as hIgG4
T7 construct: also called mouse TIGIT monomer (prepared in-house)
T7 sequence (soluble monomer with His tag, looked up): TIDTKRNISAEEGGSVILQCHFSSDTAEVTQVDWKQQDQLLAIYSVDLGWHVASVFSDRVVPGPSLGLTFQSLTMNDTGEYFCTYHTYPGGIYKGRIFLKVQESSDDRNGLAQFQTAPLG

[20] = biological target: T8, human TIGIT on cells (human, UniProt Q495A1 22-141); assay: FACS titration of AF647-labelled mAb on human effector memory CD8+ T cells, Donor 321
T8 construct: also called Expi293 human TIGIT over-expressing cells
T8 sequence: T6 sequence

[21] = biological target: T8, human TIGIT on cells; assay: FACS titration of AF647-labelled mAb on human effector memory CD8+ T cells, Donor 322
[22] = biological target: T8, human TIGIT on cells; assay: FACS titration of AF647-labelled mAb on human effector memory CD8+ T cells, Donor 334
[23] = biological target: T8, human TIGIT on cells; assay: FACS titration on human TIGIT OE Expi293 cells, binding site concentration; ± 95% CI; 'Fit: Excellent'
[24] = biological target: T9, cyno TIGIT on cells (cynomolgus macaque); assay: FACS titration on cyno TIGIT OE Expi293 cells, binding site concentration; ± 95% CI; 'Fit: Good/Excellent'
T9 construct: whole, on cells; also called Expi293 cyno TIGIT over-expressing cells

[25] = biological target: T8, human TIGIT on cells; assay: FACS blocking of human PVR-m2aFc binding to human TIGIT OE Expi293 cells; binding site concentration; n=1
[26] = biological target: T8, human TIGIT on cells; assay: FACS blocking of human PVR-m2aFc binding to human TIGIT OE Expi293 cells; binding site concentration; n=2
[27] = biological target: T10, mPVRL2 HIS (mouse, UniProt P32507 32-351, limits assumed); assay: ELISA: soluble receptor Fc titrated on immobilized mPVRL2 HIS
T10 construct: also called mPVRL2 protein; Soluble PVRL2 HIS protein
T10 sequence (looked up): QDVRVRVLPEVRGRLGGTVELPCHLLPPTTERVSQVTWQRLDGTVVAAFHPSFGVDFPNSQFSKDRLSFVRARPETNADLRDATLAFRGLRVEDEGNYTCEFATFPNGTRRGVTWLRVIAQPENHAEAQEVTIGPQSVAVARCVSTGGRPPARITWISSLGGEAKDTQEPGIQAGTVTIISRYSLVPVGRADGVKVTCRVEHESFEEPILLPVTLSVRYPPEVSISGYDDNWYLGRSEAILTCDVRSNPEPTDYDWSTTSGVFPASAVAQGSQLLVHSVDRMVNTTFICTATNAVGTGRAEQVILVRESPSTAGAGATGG

T5 sequence (ECD with C-terminal His tag, as listed by the source): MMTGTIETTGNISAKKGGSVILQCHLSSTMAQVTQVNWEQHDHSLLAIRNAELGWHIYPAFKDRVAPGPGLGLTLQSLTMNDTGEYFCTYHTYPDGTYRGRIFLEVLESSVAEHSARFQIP

B1: CHA.7.518 (antibody, V domains shown)
VH: EVQLQQSGPELVKPGASVKISCKASGYTFTDYNINWVKQSHGKSLEWIGYIYPYIGGSGYNQKFKSKATLSADNPSSTAYMELRSLTSEDSAVYYCAREDKTARNAMDYWGQGTPVTVSS
VL: DIQMTQSPASLSVSVGETVTIICRVSENIYSNLAWYQQKQGKSPQLLVYEATNLAEGVPSRFSGSGSGTQYSLKINSLQSEDFGSYYCQHFWGTPYTFGGGTKLEIK
fold higher affinity than CPA.7.021 [1]: ~13 fold | fold higher affinity than CPA.7.021 [2]: ~8 fold | EC50 [3]: 360 pM | Kd [4]: 240 pM | Kd [5]: 360 pM | IC50 [6]: 23200 pM | IC50 [7]: 23200 pM

B2: CHA.7.538.1.2.H4(S241P) (antibody, human IgG4 S228P, kappa, V domains shown)
VH: QVQLVQSGAEVKKPGASVKVSCKASGYAFTNYLIEWVRQAPGQGLEWIGVINPGSGGIYYAQKFQGRVTMTADTSTSTVYMELSSLRSEDTAVYYCARSETHDTWFAYWGQGTLVTVSS
VL: DIQMTQSPSSLSASVGDRVTITCKASQSVRIAVAWFQQKPGKAPKALIYLASTRHTGVPSRFSGSGSGTDFTLTISSVQPEDFATYYCLQHWNYPYTFGQGTKLEIKR
notes: humanized, human IgG4 with S241P
Kd [8]: 590 pM | Kd [9]: 860 pM | Kd [10]: 580 pM | IC50 [11]: 2530 pM | % binding relative to maximum signal [12]: 100% | % binding relative to maximum signal [13]: 32% | % binding relative to maximum signal [14]: 7% | IC50 [15]: 16100 pM

B3: BM29 hIgG4 (antibody, V domains shown)
VH: QVHLQESGPGLVKPSETLSLTCTVSGGSVSSGIYYWSWIRQPPGKGLEWIGYIYYSGSTNYNPSLKSRVTISVDTSKNQFSLKLSSVTAADTAVYYCARDYYVSGNYYNVDYYFFGVDVWGQGTTVTVSS
VL: EIVLTQSPATLSLSPGERATLSCRASQSVSSYLAWYQQKPGQAPRLLIYDASNRATGIPARFSGSGSGTDFTLTISSLEPEDFAVYYCQQRSNWPPLFTFGPGTKVDIKR
notes: benchmark anti-human TIGIT antibody, human IgG4 with S241P; also called BM29-H4; US2016/0176963A1 Clone 22G2 as hIgG4
Kd [16]: 1540 pM | Kd [17]: 11 pM | Kd [18]: 15 pM | binding result [19]: no binding (tested: 92.9 nM mouse TIGIT) | Kd [20]: 880 pM | Kd [21]: 910 pM | Kd [22]: 590 pM | Kd [23]: 1530 pM | Kd [24]: 1670 pM | IC50 [25]: 1000 pM | IC50 [26]: 500 pM

B4: TIGIT Fc (Fc fusion, UniProt P86176 29-148, looked up)
fusion chain: T7 sequence (soluble monomer with His tag, looked up)
notes: receptor part of an Fc fusion; Soluble receptor Fc tested on immobilized mPVRL2 HIS
binding result [27]: no binding (tested: about 200 nM)
